# From patent publication US7999069B2, “EphB receptor-binding peptides” (Sanford-Burnham Medical Research Institute, priority 2005, dated 2011)
# T1: EphB4 (Homo sapiens, UniProt P54760)
# T1 construct: panned on the ectodomains of EphB1, EphB2, or EphB4 fused to human Fc
# T1 sequence (P54760 16-539 limits assumed): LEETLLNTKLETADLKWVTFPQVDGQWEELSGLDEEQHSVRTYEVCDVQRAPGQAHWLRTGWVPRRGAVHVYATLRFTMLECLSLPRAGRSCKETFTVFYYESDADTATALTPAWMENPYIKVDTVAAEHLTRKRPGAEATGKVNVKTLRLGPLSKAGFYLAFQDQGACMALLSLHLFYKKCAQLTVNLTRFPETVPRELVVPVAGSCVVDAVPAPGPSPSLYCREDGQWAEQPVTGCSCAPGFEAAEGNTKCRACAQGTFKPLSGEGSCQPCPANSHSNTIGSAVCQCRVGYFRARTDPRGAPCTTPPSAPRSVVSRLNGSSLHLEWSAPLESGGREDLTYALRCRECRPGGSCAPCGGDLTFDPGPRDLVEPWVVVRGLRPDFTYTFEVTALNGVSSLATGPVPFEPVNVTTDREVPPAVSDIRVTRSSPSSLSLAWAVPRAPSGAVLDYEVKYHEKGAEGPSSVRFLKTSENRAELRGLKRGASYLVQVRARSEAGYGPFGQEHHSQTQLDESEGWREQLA
# T2: EphB4 (Homo sapiens, UniProt P54760)
# T2 construct: MCF-7 human breast cancer cells, which endogenously express EphB4; endogenous in cells; host or cells: MCF7
# T2 sequence (P54760 16-987): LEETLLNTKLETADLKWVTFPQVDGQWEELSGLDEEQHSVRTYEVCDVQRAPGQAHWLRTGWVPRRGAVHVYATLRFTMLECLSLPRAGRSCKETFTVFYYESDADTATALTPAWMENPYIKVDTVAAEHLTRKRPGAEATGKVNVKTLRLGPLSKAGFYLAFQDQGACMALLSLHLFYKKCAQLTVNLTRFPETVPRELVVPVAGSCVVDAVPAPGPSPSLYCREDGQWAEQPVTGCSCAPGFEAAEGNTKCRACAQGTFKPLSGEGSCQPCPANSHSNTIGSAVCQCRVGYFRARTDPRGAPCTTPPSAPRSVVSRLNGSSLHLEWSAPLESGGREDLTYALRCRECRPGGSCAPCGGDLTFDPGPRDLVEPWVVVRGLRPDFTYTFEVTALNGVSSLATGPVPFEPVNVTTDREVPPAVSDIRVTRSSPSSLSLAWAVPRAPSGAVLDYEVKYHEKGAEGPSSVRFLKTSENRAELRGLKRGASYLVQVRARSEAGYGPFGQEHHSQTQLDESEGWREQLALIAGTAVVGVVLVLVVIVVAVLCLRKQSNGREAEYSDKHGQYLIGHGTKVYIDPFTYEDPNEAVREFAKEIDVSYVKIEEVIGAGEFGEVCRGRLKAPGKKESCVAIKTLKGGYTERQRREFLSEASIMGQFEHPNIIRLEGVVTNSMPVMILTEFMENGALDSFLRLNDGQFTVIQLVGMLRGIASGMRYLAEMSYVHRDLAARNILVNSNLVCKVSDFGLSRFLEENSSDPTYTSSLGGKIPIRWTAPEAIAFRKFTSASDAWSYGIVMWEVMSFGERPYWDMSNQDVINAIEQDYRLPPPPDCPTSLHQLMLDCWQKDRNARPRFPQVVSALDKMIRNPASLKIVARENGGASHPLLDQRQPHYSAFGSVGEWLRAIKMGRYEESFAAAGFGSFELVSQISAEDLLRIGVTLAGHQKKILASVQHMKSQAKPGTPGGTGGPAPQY
# T3: EphB2 (Homo sapiens, UniProt P29323)
# T3 sequence (P29323 19-1055): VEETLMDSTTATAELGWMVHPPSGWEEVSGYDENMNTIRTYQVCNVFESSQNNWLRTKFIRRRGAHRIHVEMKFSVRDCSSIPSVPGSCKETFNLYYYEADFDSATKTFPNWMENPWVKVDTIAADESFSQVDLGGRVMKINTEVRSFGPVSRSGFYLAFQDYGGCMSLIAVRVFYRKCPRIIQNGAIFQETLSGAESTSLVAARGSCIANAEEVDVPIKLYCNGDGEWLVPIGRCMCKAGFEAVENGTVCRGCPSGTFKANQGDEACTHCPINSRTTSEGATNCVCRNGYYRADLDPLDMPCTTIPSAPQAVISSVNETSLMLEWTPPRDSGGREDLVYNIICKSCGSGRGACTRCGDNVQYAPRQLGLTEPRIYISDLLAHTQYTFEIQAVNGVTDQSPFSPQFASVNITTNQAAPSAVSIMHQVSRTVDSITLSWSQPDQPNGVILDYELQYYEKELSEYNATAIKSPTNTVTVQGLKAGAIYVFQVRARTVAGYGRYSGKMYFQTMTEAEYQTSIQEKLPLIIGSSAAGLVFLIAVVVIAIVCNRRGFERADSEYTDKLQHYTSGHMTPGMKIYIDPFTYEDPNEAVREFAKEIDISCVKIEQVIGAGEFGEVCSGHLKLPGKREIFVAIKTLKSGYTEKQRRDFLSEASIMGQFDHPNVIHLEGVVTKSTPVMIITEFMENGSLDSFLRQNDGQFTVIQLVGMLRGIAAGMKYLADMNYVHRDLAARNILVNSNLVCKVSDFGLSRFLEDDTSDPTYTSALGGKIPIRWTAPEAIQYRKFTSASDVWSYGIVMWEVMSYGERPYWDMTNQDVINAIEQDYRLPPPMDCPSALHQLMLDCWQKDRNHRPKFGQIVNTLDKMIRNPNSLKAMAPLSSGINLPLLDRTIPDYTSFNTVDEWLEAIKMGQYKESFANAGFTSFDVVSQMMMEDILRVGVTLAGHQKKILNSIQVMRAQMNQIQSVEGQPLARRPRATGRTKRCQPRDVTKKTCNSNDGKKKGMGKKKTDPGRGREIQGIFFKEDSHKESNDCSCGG
# T4: EphA3 (Homo sapiens, UniProt P29320)
# T4 sequence (P29320 21-983): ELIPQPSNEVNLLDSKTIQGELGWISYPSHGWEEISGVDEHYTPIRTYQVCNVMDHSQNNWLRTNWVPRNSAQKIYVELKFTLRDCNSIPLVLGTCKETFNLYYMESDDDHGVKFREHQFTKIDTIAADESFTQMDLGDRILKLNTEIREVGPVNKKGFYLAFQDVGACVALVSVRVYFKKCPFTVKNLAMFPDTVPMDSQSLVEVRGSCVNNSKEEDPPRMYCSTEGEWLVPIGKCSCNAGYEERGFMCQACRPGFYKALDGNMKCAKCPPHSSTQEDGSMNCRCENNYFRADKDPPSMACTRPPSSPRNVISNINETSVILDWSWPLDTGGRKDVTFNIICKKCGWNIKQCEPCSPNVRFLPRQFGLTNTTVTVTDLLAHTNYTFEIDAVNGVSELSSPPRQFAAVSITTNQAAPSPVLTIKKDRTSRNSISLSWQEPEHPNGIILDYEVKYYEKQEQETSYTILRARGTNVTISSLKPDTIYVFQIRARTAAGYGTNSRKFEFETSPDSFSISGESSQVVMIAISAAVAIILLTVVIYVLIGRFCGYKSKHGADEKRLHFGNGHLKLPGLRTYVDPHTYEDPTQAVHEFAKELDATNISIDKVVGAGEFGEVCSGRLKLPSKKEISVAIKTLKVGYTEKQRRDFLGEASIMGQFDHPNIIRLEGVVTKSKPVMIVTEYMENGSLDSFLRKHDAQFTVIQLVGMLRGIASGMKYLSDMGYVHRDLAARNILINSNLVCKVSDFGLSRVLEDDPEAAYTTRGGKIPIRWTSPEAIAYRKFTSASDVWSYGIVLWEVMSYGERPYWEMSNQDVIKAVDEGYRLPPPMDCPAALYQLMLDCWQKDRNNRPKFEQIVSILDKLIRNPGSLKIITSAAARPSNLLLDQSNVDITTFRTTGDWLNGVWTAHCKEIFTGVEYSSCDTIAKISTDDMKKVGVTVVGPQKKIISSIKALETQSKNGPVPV
# B1: ephrin-B2: ephrin ligand; monovalent interaction with EphB2, literature KD (protein, UniProt P52799 28-333, looked up)
# Ephrin-B2: IVLEPIYWNSSNSKFLPGQGLVLYPQIGDKLDIICPKVDSKTVGQYEYYKVYMVDKDQADRCTIKKENTPLLNCAKPDQDIKFTIKFQEFSPNLWGLEFQKNKDYYIISTSNGSLEGLDNQEGGVCQTRAMKILMKVGQDASSAGSTRNKDPTRRPELEAGTNGRSSTTSPFVKPNPGSSTDGNSAGHSGNNILGSEVALFAGIASGCIIFIVIIITLVVLLLKYRRRHRKHSPQHTTTLSLSTLATPKRSGNNNGSEPSDIIIPLRTADSVFCPHYEKVSGDYGHPVYIVQEMPPQSPANIYYKV
# B2: ephrin-A5: ephrin ligand; monovalent interaction with EphA3, literature KD (protein, UniProt P52803 21-203, looked up)
# Ephrin-A5: QDPGSKAVADRYAVYWNSSNPRFQRGDYHIDVCINDYLDVFCPHYEDSVPEDKTERYVLYMVNFDGYSACDHTSKGFKRWECNRPHSPNGPLKFSEKFQLFTPFSLGFEFRPGREYFYISSAIPDNGRRSCLKLKVFVRPTNSCMKTIGVHDRVFDVNDKVENSLEPADDTVHESAEPSRGEN
# Key:
# [1] = biological target: T1, EphB4; assay: Peptide competition of phage binding to EphB4 ectodomain; settings: concentration-dependent
# Protocol: To measure peptide competition of phage binding to EphB receptors, Ni-NTA wells coated with Eph ectodomain Fc were incubated for 30 min at room temperature with various peptide concentrations in binding buffer (100 μl/well). Concentrated stocks of phage clones diluted between 1:500 and 1:10,000 in binding buffer were then added to the wells for a 1 hr at room temperature. Wells were washed and bound phage were detected using the anti-M13 antibody. A biotinylated control peptide with sequence unrelated to the sequences of the Eph-binding peptides ([…], SEQ ID NO: 40) was used as a negative control in some of the experiments, as indicated in the figure legends.
# […]. The SNEW peptide at 25 μM inhibited EphB2 binding of most phage clones isolated by panning on EphB2 (FIGS. 2E and G). The only exceptions were the IHWP, DHRWV and WHWT clones. However, binding of these clones was inhibited by 50 μM SNEW peptide, particularly when the phage concentration was halved. […] Bound phage were detected using anti-M13 phage antibody coupled to HRP and phage binding in the presence of peptide was normalized to phage binding in the absence of peptide. Error bars indicate standard deviation from duplicate measurements, and were calculated taking into account propagation of errors.
# [2] = biological target: T2, EphB4; assay: Peptide pull-down of EphB4 from MCF7 or transfected 293T cells; type: binding
# Protocol: (§1) The ability of the peptides to bind in a stable manner, which is important for both targeting and competitive inhibition, was tested in pull-down experiments. For peptide pull-down experiments, cells in 60 cm plates at 70% confluency or adult mouse brain tissue were solubilized in pull-down buffer (50 mM HEPES pH 7.5, 150 mM NaCl, 10% glycerol, 1% Triton-X100, 5 mM KCl and 1 mM EDTA). Three μg of biotinylated peptide were incubated for 45-90 min with 5 μl streptavidin agarose beads (Sigma), unbound peptide was washed away, and the beads were incubated with the cell lysates for 45-90 min. Proteins bound to the beads were separated by SDS-polyacrylamide gel electrophoresis and probed by immunoblotting with EphB1, EphB2, or EphB4 antibodies. The EphB1 antibody (Santa Cruz) was detected with a secondary anti-goat IgG peroxidase-conjugated antibody (BioRad Laboratories). The EphB2 and EphB4 antibodies were affinity-purified polyclonal antibodies to GST fusion proteins containing approximately 100 amino acids from the carboxy-terminal tails of the EphB2 or EphB4 receptors (Noren, N. K. et al. 2004 PNAS USA 101:5583-5588; Holash, J. A. & Pasquale, E. B. 1995 Devel Biol 172:683-693) and were detected with a secondary anti-rabbit IgG peroxidase-conjugated antibody (Amersham Biosciences).
# Endogenous EphB receptors were isolated from lysates of mouse brain or cultured cells using the EWLS, SNEW, and TNYL peptides immobilized on streptavidin beads (FIGS. 5B, F, G and H). […] RTVA was used as a control peptide for the EphB4 pull downs. The NPVI peptide could isolate EphB4 from transfected cells but not endogenous EphB4 from MCF7 cells, which is present at lower levels (FIGS. 5B, F, G and H). […] EphB receptors were not detected bound to the beads coated with the other peptides.
# [3] = test system: EphB receptors; assay: Peptide pull-down of endogenous EphB receptors from lysates; type: binding; settings: peptide on streptavidin beads; mouse brain or cultured cell lysates
# Protocol: as §1, with “Biosciences). […]” for “Biosciences).”
# [4] = test system: COS cells; settings: 400 μM peptide; […] ephrin-B1 Fc
# Protocol: Upon treatment with 1.5 μg/ml ephrin-B1 Fc, COS cells retract at the periphery, leaving behind spike-like protrusions. […] COS cells were plated onto glass coverslips and sixteen hours later were starved for three hours in DME with 0.5% fetal calf serum. The cells were then incubated for 20 min with 400 μM SNEW or control peptide in PBS, or an equal volume of PBS as a control, and then either left untreated or stimulated for 10 min with 1.5 μg/ml ephrinB1-Fc (R&D Systems, Inc.). […] Control peptide: RTVA.
# [5] = biological target: T3, EphB2; settings: read-out: KD for monovalent EphB2-ephrin-B2 interaction; cited from earlier work
# [6] = biological target: T4, EphA3; settings: read-out: KD for monovalent EphA3-ephrin-A5 interaction; cited from earlier work
molecule,measurement,setting,value
SEQ ID NO 20: 12-mer from EphB4 panning; printed DAL[image]D[image]L[image]FRPW (DALNDWLLFRPW),Inhibition of DALN phage binding to immobilized EphB4 ectodomain,[1],inhibited binding of DALN phage
same,"Pull-down of EphB4, peptides used alone or together",[2],ineffective
CC[C@H](C)[C@H](NC(=O)[C@H](Cc1c[nH]c2ccccc12)NC(=O)[C@H](CCC(=O)O)NC(=O)[C@H](CC(N)=O)NC(=O)[C@@H](N)CO)C(=O)N[C@@H](CCC(N)=O)C(=O)N1CCC[C@H]1C(=O)N[C@@H](CCCNC(=N)N)C(=O)N[C@@H](CC(C)C)C(=O)N1CCC[C@H]1C(=O)N[C@@H](CCC(N)=O)C(=O)N[C@@H](Cc1c[nH]cn1)C(=O)O [SEQ ID NO 18],Stable binding of EphB receptors in pull-down,[3],stably bind EphB receptors
same,Inhibition of COS cell retraction phenotype,[4],inhibited the COS cell retraction phenotype
B1,Kd,[5],16 nM
B2,Kd,[6],10 to 12 nM
